Reference: patent publication US20140087995A1 (published 2014)
Numbered stars: 1 amine (or outer) side, 2 acyl side, 3 side chain; on linkers, the order of the positions; unused ones are H or OH. Bridge positions count the residues as written; N and C are the ends. Side chains are listed from the residue outwards. Ends that are not written are not given here. * marks the point of attachment. C20 diacid = O=C(O)CCCCCCCCCCCCCCCCCCC(=O)*; γGlu = O=C(O)[C@H](CCC(=O)[*:2])N[*:1]; AEEA = NCCOCCOCC(=O)O

T1: rat calcitonin receptor (rat, UniProt P32214 25-516)
T1 construct: whole, on cells; Used as membranes prepared from the transfected cells; also called rCTR; rCT
T1 sequence (looked up): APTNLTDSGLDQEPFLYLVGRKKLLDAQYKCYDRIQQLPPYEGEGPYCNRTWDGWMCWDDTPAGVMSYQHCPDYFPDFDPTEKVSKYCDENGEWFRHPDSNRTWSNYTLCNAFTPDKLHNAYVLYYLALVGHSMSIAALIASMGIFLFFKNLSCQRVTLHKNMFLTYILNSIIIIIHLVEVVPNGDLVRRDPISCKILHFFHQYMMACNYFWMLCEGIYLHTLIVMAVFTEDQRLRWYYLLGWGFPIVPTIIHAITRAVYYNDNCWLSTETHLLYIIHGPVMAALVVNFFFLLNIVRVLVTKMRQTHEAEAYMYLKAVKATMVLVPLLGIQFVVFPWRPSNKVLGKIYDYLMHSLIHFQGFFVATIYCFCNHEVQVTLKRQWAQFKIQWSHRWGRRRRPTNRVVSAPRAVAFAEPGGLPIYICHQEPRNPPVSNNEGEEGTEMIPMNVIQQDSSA

T2: human calcitonin receptor (human, UniProt P30988 25-474)
T2 construct: whole, on cells; Used as membranes prepared from the transfected cells; also called hCTR; hCT
T2 sequence (looked up): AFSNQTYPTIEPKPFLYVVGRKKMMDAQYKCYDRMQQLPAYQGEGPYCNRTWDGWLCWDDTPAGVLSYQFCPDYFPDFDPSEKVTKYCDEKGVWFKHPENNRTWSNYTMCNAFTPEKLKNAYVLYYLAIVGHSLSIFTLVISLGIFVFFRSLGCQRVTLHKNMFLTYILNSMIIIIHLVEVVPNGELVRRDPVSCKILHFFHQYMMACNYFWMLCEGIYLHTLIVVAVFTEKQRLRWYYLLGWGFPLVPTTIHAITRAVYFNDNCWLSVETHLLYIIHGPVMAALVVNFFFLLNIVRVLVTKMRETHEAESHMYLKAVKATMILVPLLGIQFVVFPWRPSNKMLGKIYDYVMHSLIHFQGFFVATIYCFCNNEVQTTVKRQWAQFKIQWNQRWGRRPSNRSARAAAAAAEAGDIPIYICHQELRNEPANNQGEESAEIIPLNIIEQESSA


Legend:
[1] = biological target: T1, rat calcitonin receptor; assay: ratio of binding IC50 at rat calcitonin receptor to IC50 at rat amylin receptor (reference)
[2] = biological target: T1, rat calcitonin receptor; assay: SPA competition with 125I-calcitonin, membranes with rat calcitonin receptor (Assay VIII)
[3] = biological target: T2, human calcitonin receptor; assay: ratio of binding IC50 at human calcitonin receptor to IC50 at human amylin receptor (reference)
Experimental: The resulting pellet was resuspended, homogenized and centrifuged (20.000 rpm, 15 min) in a buffer containing 20 mM Na-HEPES and 0.1 mM EDTA (pH 7.4, buffer 2). The resulting pellet was resuspended in buffer 2 and protein concentration was measured (BCA protein Assay, Pierce). The homogenate was kept cold during the whole procedure. The membranes were kept at −80° C. until use. The assay was performed in a 384 well Optiplate (PerkinElmer) in a total volume of 40 ul. Membranes were mixed with SPA beads. Final concentration of membranes 35 ng/μL final and SPA beads was 0.05 mg/well. Test-compounds were dissolved in DMSO and further diluted in assay buffer (50 mM Hepes, pH 7.4, 1 mM CaCl2, 5 mM MgCl₂, 0.1% OA and 0.02% Tween20). […] The final mixture was incubated with shaking at 400 rpm for 120 min at 25° C. prior to centrifugation (1500 rpm, 10 min). Samples were analyzed on TopCounter™ (Packard). The IC₅₀ was calculated using (one site binding competition analysis) GraphPad Prism5 as a measure of receptor affinity.
Membranes were prepared in the following way; the cells were rinsed with PBS and incubated with Versene for approximately 5 min before harvesting. The cells were flushed with PBS and the cell-suspension was centrifuged for 5 min at 1000 rpm. Cells were homogenized (Ultrathurrax) in a buffer containing 20 mM Na-HEPES and 10 mM EDTA (pH 7.4) and centrifuged at 20.000 rpm for 15 min. The resulting pellet was resuspended, homogenized and centrifuged (20.000 rpm, 15 min) in a buffer containing 20 mM Na-HEPES and 0.1 mM EDTA (pH 7.4, buffer 2). The resulting pellet was resuspended in buffer 2 and protein concentration was measured (BCA protein Assay, Pierce). The homogenate was kept cold during the whole procedure. The membranes were kept at −80° C. until use. Assay was performed in a 384 well Optiplate (PerkinElmer) in a total volume of 40 ul. Membranes were mixed with SPA beads.

Binder	Ratio rCT/rAmylin binding [1]	IC50 [2]	Ratio hCT/hAmylin binding [3]
K([AEEA-γGlu-C20 diacid])CNTATCATQRLARFLRHSSPNFGAIPSSTNVGSNTY-NH2 (disulfide 2-7; N-terminus assumed; SMILES CC[C@H](C)[C@H](NC(=O)[C@H](C)NC(=O)CNC(=O)[C@H](Cc1ccccc1)NC(=O)[C@H](CC(N)=O)NC(=O)[C@@H]1CCCN1C(=O)[C@H](CO)NC(=O)[C@H](CO)NC(=O)[C@H](Cc1c[nH]cn1)NC(=O)[C@H](CCCNC(=N)N)NC(=O)[C@H](CC(C)C)NC(=O)[C@H](Cc1ccccc1)NC(=O)[C@H](CCCNC(=N)N)NC(=O)[C@H](C)NC(=O)[C@H](CC(C)C)NC(=O)[C@H](CCCNC(=N)N)NC(=O)[C@H](CCC(N)=O)NC(=O)[C@@H](NC(=O)[C@H](C)NC(=O)[C@@H]1CSSC[C@H](NC(=O)[C@@H](N)CCCCNC(=O)COCCOCCNC(=O)CC[C@H](NC(=O)CCCCCCCCCCCCCCCCCCC(=O)O)C(=O)O)C(=O)N[C@@H](CC(N)=O)C(=O)N[C@@H]([C@@H](C)O)C(=O)N[C@@H](C)C(=O)N[C@@H]([C@@H](C)O)C(=O)N1)[C@@H](C)O)C(=O)N1CCC[C@H]1C(=O)N[C@@H](CO)C(=O)N[C@@H](CO)C(=O)N[C@H](C(=O)N[C@@H](CC(N)=O)C(=O)N[C@H](C(=O)NCC(=O)N[C@@H](CO)C(=O)N[C@@H](CC(N)=O)C(=O)N[C@H](C(=O)N[C@@H](Cc1ccc(O)cc1)C(N)=O)[C@@H](C)O)C(C)C)[C@@H](C)O, Analogue of human amylin; disulfide and C-terminal amide as told for h-amylin; also called compound 82)	87	143 nM	140
K([AEEA-γGlu-C20 diacid])CNTATCATQRLAGFLRHSSPNFGAIPSSTPVGSNTY-NH2 (disulfide 2-7; N-terminus assumed; SMILES CC[C@H](C)[C@H](NC(=O)[C@H](C)NC(=O)CNC(=O)[C@H](Cc1ccccc1)NC(=O)[C@H](CC(N)=O)NC(=O)[C@@H]1CCCN1C(=O)[C@H](CO)NC(=O)[C@H](CO)NC(=O)[C@H](Cc1c[nH]cn1)NC(=O)[C@H](CCCNC(=N)N)NC(=O)[C@H](CC(C)C)NC(=O)[C@H](Cc1ccccc1)NC(=O)CNC(=O)[C@H](C)NC(=O)[C@H](CC(C)C)NC(=O)[C@H](CCCNC(=N)N)NC(=O)[C@H](CCC(N)=O)NC(=O)[C@@H](NC(=O)[C@H](C)NC(=O)[C@@H]1CSSC[C@H](NC(=O)[C@@H](N)CCCCNC(=O)COCCOCCNC(=O)CC[C@H](NC(=O)CCCCCCCCCCCCCCCCCCC(=O)O)C(=O)O)C(=O)N[C@@H](CC(N)=O)C(=O)N[C@@H]([C@@H](C)O)C(=O)N[C@@H](C)C(=O)N[C@@H]([C@@H](C)O)C(=O)N1)[C@@H](C)O)C(=O)N1CCC[C@H]1C(=O)N[C@@H](CO)C(=O)N[C@@H](CO)C(=O)N[C@H](C(=O)N1CCC[C@H]1C(=O)N[C@H](C(=O)NCC(=O)N[C@@H](CO)C(=O)N[C@@H](CC(N)=O)C(=O)N[C@H](C(=O)N[C@@H](Cc1ccc(O)cc1)C(N)=O)[C@@H](C)O)C(C)C)[C@@H](C)O, Analogue of human amylin; disulfide and C-terminal amide as told for h-amylin; also called compound 71)	162	44.8 nM	32
K([AEEA-γGlu-C20 diacid])CNTATCATQRLANFLRHSSPNFGAIPSSTNVGHNTY-NH2 (disulfide 2-7; N-terminus assumed; SMILES CC[C@H](C)[C@H](NC(=O)[C@H](C)NC(=O)CNC(=O)[C@H](Cc1ccccc1)NC(=O)[C@H](CC(N)=O)NC(=O)[C@@H]1CCCN1C(=O)[C@H](CO)NC(=O)[C@H](CO)NC(=O)[C@H](Cc1c[nH]cn1)NC(=O)[C@H](CCCNC(=N)N)NC(=O)[C@H](CC(C)C)NC(=O)[C@H](Cc1ccccc1)NC(=O)[C@H](CC(N)=O)NC(=O)[C@H](C)NC(=O)[C@H](CC(C)C)NC(=O)[C@H](CCCNC(=N)N)NC(=O)[C@H](CCC(N)=O)NC(=O)[C@@H](NC(=O)[C@H](C)NC(=O)[C@@H]1CSSC[C@H](NC(=O)[C@@H](N)CCCCNC(=O)COCCOCCNC(=O)CC[C@H](NC(=O)CCCCCCCCCCCCCCCCCCC(=O)O)C(=O)O)C(=O)N[C@@H](CC(N)=O)C(=O)N[C@@H]([C@@H](C)O)C(=O)N[C@@H](C)C(=O)N[C@@H]([C@@H](C)O)C(=O)N1)[C@@H](C)O)C(=O)N1CCC[C@H]1C(=O)N[C@@H](CO)C(=O)N[C@@H](CO)C(=O)N[C@H](C(=O)N[C@@H](CC(N)=O)C(=O)N[C@H](C(=O)NCC(=O)N[C@@H](Cc1c[nH]cn1)C(=O)N[C@@H](CC(N)=O)C(=O)N[C@H](C(=O)N[C@@H](Cc1ccc(O)cc1)C(N)=O)[C@@H](C)O)C(C)C)[C@@H](C)O, Analogue of human amylin; disulfide and C-terminal amide as told for h-amylin; also called compound 76)	56.8	38.9 nM	80
K([AEEA-γGlu-C20 diacid])CNTATCATQRLANFLRHSSPNFGAIPSSTNVGRNTY-NH2 (disulfide 2-7; N-terminus assumed; SMILES CC[C@H](C)[C@H](NC(=O)[C@H](C)NC(=O)CNC(=O)[C@H](Cc1ccccc1)NC(=O)[C@H](CC(N)=O)NC(=O)[C@@H]1CCCN1C(=O)[C@H](CO)NC(=O)[C@H](CO)NC(=O)[C@H](Cc1c[nH]cn1)NC(=O)[C@H](CCCNC(=N)N)NC(=O)[C@H](CC(C)C)NC(=O)[C@H](Cc1ccccc1)NC(=O)[C@H](CC(N)=O)NC(=O)[C@H](C)NC(=O)[C@H](CC(C)C)NC(=O)[C@H](CCCNC(=N)N)NC(=O)[C@H](CCC(N)=O)NC(=O)[C@@H](NC(=O)[C@H](C)NC(=O)[C@@H]1CSSC[C@H](NC(=O)[C@@H](N)CCCCNC(=O)COCCOCCNC(=O)CC[C@H](NC(=O)CCCCCCCCCCCCCCCCCCC(=O)O)C(=O)O)C(=O)N[C@@H](CC(N)=O)C(=O)N[C@@H]([C@@H](C)O)C(=O)N[C@@H](C)C(=O)N[C@@H]([C@@H](C)O)C(=O)N1)[C@@H](C)O)C(=O)N1CCC[C@H]1C(=O)N[C@@H](CO)C(=O)N[C@@H](CO)C(=O)N[C@H](C(=O)N[C@@H](CC(N)=O)C(=O)N[C@H](C(=O)NCC(=O)N[C@@H](CCCNC(=N)N)C(=O)N[C@@H](CC(N)=O)C(=O)N[C@H](C(=O)N[C@@H](Cc1ccc(O)cc1)C(N)=O)[C@@H](C)O)C(C)C)[C@@H](C)O, Analogue of human amylin; disulfide and C-terminal amide as told for h-amylin; also called compound 78)	69.9	90.6 nM	60.7
